Measurements reported in patent US20250002575A1 (Genentech, published 2025).
Values belong to the binder of their own block, whether it stands above or below them.

Columns and labels:
[1] = target: T1, reduced recombinant human IL-33 (His-tagged, amino acids 112-270) (human, UniProt O95760 112-270); experiment: SPR (Biacore 8K), antibody captured on Protein A chip, reduced hIL-33 as analyte, multi-cycle kinetics, 25 C
T1 construct: range 112-270; Expressed in E. coli; kept in the reduced state (all four cysteines free) with TCEP; also called reduced hIL-33; hIL-33
T1 sequence: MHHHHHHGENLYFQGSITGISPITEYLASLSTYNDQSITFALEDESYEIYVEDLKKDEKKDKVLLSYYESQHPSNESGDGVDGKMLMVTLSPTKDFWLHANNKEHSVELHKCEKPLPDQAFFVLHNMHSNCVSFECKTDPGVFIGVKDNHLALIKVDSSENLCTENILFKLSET
Protocol: (§1) A Series S Protein A sensor chip (Cytiva, Marlborough, MA, USA) was used to capture recombinant chimeric human IgG versions of anti-hIL-33 Abs using a BIACORE® 8 k instrument (Cytiva, Marlborough, MA, USA). Antibody binding to human histidine-tagged hIL-33 (Genentech, South San Francisco, CA, USA) was measured using multi-cycle kinetics. Sensorgrams were recorded using an injection time of 2 minutes with a flow rate of 30 μL/min, at 25° C. or 37° C., and with a running buffer of 10 mM N-2-hydroxyethylpiperazine-N′-2-ethanesulfonic acid (HEPES), pH 7.4, 150 mM sodium chloride (NaCl), 3 mM ethylenediaminetetraacetic acid (EDTA), and 0.005% TWEEN® 20. After injection, dissociation of hIL-33 from the antibody was monitored for 10 minutes in running buffer. The surface was regenerated between binding cycles with a 30 μL injection of 10 mM Glycine hydrochloric acid (HCl) pH 1.5. After subtraction of a blank containing running buffer only, sensorgrams were analyzed using a 1:1 Langmuir binding model with software supplied by the manufacturer to calculate the kinetics and binding constants.

[2] = target: T1, reduced recombinant human IL-33 …; experiment: SPR (Biacore), antibody captured, reduced hIL-33 as analyte
Protocol: as §1

- Kd [1]: 291 pM
- koff [1]: 0.000146 s⁻¹
- kon [1]: 501000 M⁻¹ s⁻¹
- Kd [2]: 338 pM
B1: rat IgG2a anti-human IL-33 clone 15.21C7 (antibody, V domains shown)
VH: EVQLVESGGGLVQPGTSLKLSCVASGFTFSDFWMSWVRQTPGKTMEWIADIKNDGSHTKYAPSLQNRFTISRDNAKNTLYLEVTDVRSEDTATYYCTRVGGTYTAYYWGHGVMVTVSS
VL: DIQMTQTPSSMPASLGERVTLSCRTSQGINTYLNWYQQKPDGTITPLIHYTSNLESGVPSRFSGSGFGTDYFLTISSLEPEDFAMYFCQQYASSPWTFGGGTKLELKK
notes: also called rat anti-reduced hIL-33 15.21C7 IgG2a

- Kd [1]: 777 pM
- koff [1]: 0.000243 s⁻¹
- kon [1]: 312000 M⁻¹ s⁻¹
- Kd [2]: 487 pM
B2: rat/human chimeric anti-hIL-33 3F10 MAb (antibody, human IgG1, kappa, V domains shown)
VH: QVQLEESGPGLVQPSQTLSLTCTVSGFSLTSQNVHWVRQPPGKGLEWMGRMRFNGDTSYNSTLKSRLSISRDTSKNQVFLRLNSLQTDDTGTYYCARQRDNYGSYYFDDWGQGIMVTVSS
VL: DTVLTQSPALAVSPGERVTISCRASESVLTLLNWYQQKPGQHPKLLIYLASHLESGVPARFSGRGSGTDFTLTIDPVEADDTASYYCQQSWIDPWTFGGGTTLELKR
notes: Rat variable domains on human IgG1/kappa constant regions; also called clone 3F10; capture MAb
